Reference: publication PMC5865211, “The orphan GPR50 receptor promotes constitutive TGFβ receptor signaling and protects against cancer development” (Nature Communications, 2018)

B1: TβRI-Renilla luciferase 8 (Rluc8) fusion protein (receptor, UniProt P36897 34-503, looked up)
chain: LQCFCHLCTKDNFTCVTDGLCFVSVTETTDKVIHNSMCIAEIDLIPRDRPFVCAPSSKTGSVTTTYCCNQDHCNKIELPTTVKSSPGLGPVELAAVIAGPVCFVCISLMLMVYICHNRTVIHHRVPNEEDPSLDRPFISEGTTLKDLIYDMTTSGSGSGLPLLVQRTIARTIVLQESIGKGRFGEVWRGKWRGEEVAVKIFSSREERSWFREAEIYQTVMLRHENILGFIAADNKDNGTWTQLWLVSDYHEHGSLFDYLNRYTVTVEGMIKLALSTASGLAHLHMEIVGTQGKPAIAHRDLKSKNILVKKNGTCCIADLGLAVRHDSATDTIDIAPNHRVGTKRYMAPEVLDDSINMKHFESFKRADIYAMGLVFWEIARRCSIGGIHEDYQLPYYDLVPSDPSVEEMRKVVCEQKLRPNIPNRWQSCEALRVMAKIMRECWYANGAARLTALRIKKTLSQLSQQEGIKM
notes: TGFβ receptor type I; In the homomer BRET row the second copy of TβRI carried YFP (TβRI-YFP) instead of Rluc8; also called TβRI-Rluc8; source: HEK293T, transfected, in intact cells
B2: TβRII-YFP (receptor, UniProt P37173 23-567, looked up)
chain: TIPPHVQKSVNNDMIVTDNNGAVKFPQLCKFCDVRFSTCDNQKSCMSNCSITSICEKPQEVCVAVWRKNDENITLETVCHDPKLPYHDFILEDAASPKCIMKEKKKPGETFFMCSCSSDECNDNIIFSEEYNTSNPDLLLVIFQVTGISLLPPLGVAISVIIIFYCYRVNRQQKLSSTWETGKTRKLMEFSEHCAIILEDDRSDISSTCANNINHNTELLPIELDTLVGKGRFAEVYKAKLKQNTSEQFETVAVKIFPYEEYASWKTEKDIFSDINLKHENILQFLTAEERKTELGKQYWLITAFHAKGNLQEYLTRHVISWEDLRKLGSSLARGIAHLHSDHTPCGRPKMPIVHRDLKSSNILVKNDLTCCLCDFGLSLRLDPTLSVDDLANSGQVGTARYMAPEVLESRMNLENVESFKQTDVYSMALVLWEMTSRCNAVGEVKDYEPPFGSKVREHPCVESMKDNVLRDRGRPEIPSFWLNHQGIQMVCETLTECWDHDPEARLTAQCVAERFSELEHLDRLSGRSCSEEKIPEDGSLNTTK
notes: TGFβ receptor type II; also called TβRII-yellow fluorescent protein fusion; source: HEK293T, transfected, in intact cells
B3: GPR50Δ4-YFP (receptor, human, UniProt Q13585 1-617, looked up)
chain: MGPTLAVPTPYGCIGCKLPQPEYPPALIIFMFCAMVITIVVDLIGNSMVILAVTKNKKLRNSGNIFVVSLSVADMLVAIYPYPLMLHAMSIGGWDLSQLQCQMVGFITGLSVVGSIFNIVAIAINRYCYICHSLQYERIFSVRNTCIYLVITWIMTVLAVLPNMYIGTIEYDPRTYTCIFNYLNNPVFTVTIVCIHFVLPLLIVGFCYVRIWTKVLAARDPAGQNPDNQLAEVRNFLTMFVIFLLFAVCWCPINVLTVLVAVSPKEMAGKIPNWLYLAAYFIAYFNSCLNAVIYGLLNENFRREYWTIFHAMRHPIIFFSGLISDIREMQEARTLARARAHARDQAREQDRAHACPAVEETPMNVRNVPLPGDAAAGHPDRASGHPKPHSRSSSAYRKSASTHHKSVFSHSKAASGHLKPVSGHSKPASGHPKSATVYPKPASVHFKADSVHFKGDSVHFKPDSVHFKPASSNPKPITGHHVSAGSHSKSAFSAATSHPKPIKPATSHAEPTTADYPKPATTSHPKPTAADNPELSASHCPEIPAIAHPVSDDSDLPESASSPAAGPTKPAASQLESDTIADLPDPTVVTTSTNDYHDVVVIDVEDDPDEMAV
notes: also called GPR50-YFP; source: HEK293T, transfected, in intact cells

Columns and labels:
[1] = biological target: the molecule itself; test: FRET or BRET; BRET donor saturation in intact HEK293T cells; fixed amount of TβRI-Rluc8, increasing amounts of YFP fusion; no TGFβ
[2] = biological target: B1; test: as above; conditions: partners not purified

| BRET50 [2] | Binder | BRET50 [1] |
| --- | --- | --- |
|  | B1 | 1.34 ± 0.185 |
| 0.046 ± 0.008 | B2 |  |
| 0.031 ± 0.01 | B3 |  |
